Patent publication US6136558A, “Heregulin variants” (Genentech, Inc., priority 1998, dated 2000)

Legend:
[1] = molecular target: ErbB-3 receptor-Ig fusion (human) (UniProt P21860); test: phage ELISA, ratio to wild-type HRG8 phage
[2] = molecular target: ErbB-3 receptor-Ig fusion (human) (UniProt P21860); test: displacement of 125I-HRG-β1 177-244 from ErbB-3-Ig
[3] = molecular target: ErbB-4 receptor-Ig fusion (human) (UniProt Q15303); test: displacement of 125I-HRG-β1 177-244 from ErbB-4-Ig

Binder | EC50(wt)/EC50(mut) [1] | EC50 [2] | EC50 [3]
SHLVKCGEEREGFCVNGGECFMVKDYGYLMCKCPNEFTGDRCQNYVMAS (ligand) [HRG54 (phage)] | 12 |  | 
SHLVKCGEEREGFCVNGGECYRVKTYGYLMCKCPNEFTGDRCQNYVMAS (ligand) [HRG55 (phage)] | 13 |  | 
SHLVKCGEEREGFCVNGGECYRVKTYGYLMCKCPNEFTGDRCQNYVIAS (ligand) [HRG62 (phage)] | 32 |  | 
SHLVKCGEEREGFCVNGGECFMVKDYGYLMCKCPNEFTGDRCQNYVIAS (ligand) [HRG61 (phage)] | 29 |  | 
SHLVKCAEKEKTFCVNGGECFMVKDPSRYLCKCPNEFTGDRCQNYVMAS (ligand) [HRG63 (phage)] | 1.1 |  | 
SHLVKCAEKEKTFCVNGGECFMVKDYRYRMCKCPNEFTGDRCQNYVIAS (ligand) [E3 (phage)] | 16 |  | 
SHLVKCAEKEKTFCVNGGECFMVKDYGYLMCKCPNEFTGDRCQNYVIAS (ligand) [HRG48 (phage)] | 49 |  | 
Trx-HRG-β1 146-244 S177A fusion (ligand) DDDDKAYVSSESPIRISVSTEGANTSSSTSTSTTGTAHLVKCAEKEKTFCVNGGECFMVKDLSNPSRYLCKCPNEFTGDRCQNYVMASFYKHLGIEFMEAEELY |  | 129 nM | 54.6 nM
Trx-HRG-β1 146-244 P205A fusion (ligand) DDDDKAYVSSESPIRISVSTEGANTSSSTSTSTTGTSHLVKCAEKEKTFCVNGGECFMVKDLSNASRYLCKCPNEFTGDRCQNYVMASFYKHLGIEFMEAEELY |  | 39.5 nM | 34.2 nM
Trx-HRG-β1 146-244 E215A fusion (ligand) DDDDKAYVSSESPIRISVSTEGANTSSSTSTSTTGTSHLVKCAEKEKTFCVNGGECFMVKDLSNPSRYLCKCPNAFTGDRCQNYVMASFYKHLGIEFMEAEELY |  | 156 nM | 104 nM
Trx-HRG-β1 146-244 G194A fusion (ligand) DDDDKAYVSSESPIRISVSTEGANTSSSTSTSTTGTSHLVKCAEKEKTFCVNGAECFMVKDLSNPSRYLCKCPNEFTGDRCQNYVMASFYKHLGIEFMEAEELY |  | 1210 nM | 275 nM
Trx-HRG-β1 146-244 V199A fusion (ligand) DDDDKAYVSSESPIRISVSTEGANTSSSTSTSTTGTSHLVKCAEKEKTFCVNGGECFMAKDLSNPSRYLCKCPNEFTGDRCQNYVMASFYKHLGIEFMEAEELY |  |  | 246 nM
Trx-HRG-β1 146-244 L179A fusion (ligand) DDDDKAYVSSESPIRISVSTEGANTSSSTSTSTTGTSHAVKCAEKEKTFCVNGGECFMVKDLSNPSRYLCKCPNEFTGDRCQNYVMASFYKHLGIEFMEAEELY |  | 394 nM | 51.7 nM
Trx-HRG-β1 146-244 R207A fusion (ligand) DDDDKAYVSSESPIRISVSTEGANTSSSTSTSTTGTSHLVKCAEKEKTFCVNGGECFMVKDLSNPSAYLCKCPNEFTGDRCQNYVMASFYKHLGIEFMEAEELY |  | 245 nM | 24.3 nM
Trx-HRG-β1 146-244 F216A fusion (ligand) DDDDKAYVSSESPIRISVSTEGANTSSSTSTSTTGTSHLVKCAEKEKTFCVNGGECFMVKDLSNPSRYLCKCPNEATGDRCQNYVMASFYKHLGIEFMEAEELY |  | 2550 nM | 173 nM
Trx-HRG-β1 146-244 G193A fusion (ligand) DDDDKAYVSSESPIRISVSTEGANTSSSTSTSTTGTSHLVKCAEKEKTFCVNAGECFMVKDLSNPSRYLCKCPNEFTGDRCQNYVMASFYKHLGIEFMEAEELY |  | 26.9 nM | 76.3 nM
Trx-HRG-β1 146-244 G218A fusion (ligand) DDDDKAYVSSESPIRISVSTEGANTSSSTSTSTTGTSHLVKCAEKEKTFCVNGGECFMVKDLSNPSRYLCKCPNEFTADRCQNYVMASFYKHLGIEFMEAEELY |  | 668 nM | 608 nM
Trx-HRG-β1 146-244 N192A fusion (ligand) DDDDKAYVSSESPIRISVSTEGANTSSSTSTSTTGTSHLVKCAEKEKTFCVAGGECFMVKDLSNPSRYLCKCPNEFTGDRCQNYVMASFYKHLGIEFMEAEELY |  | 1640 nM | 696 nM
Trx-HRG-β1 146-244 Y224A fusion (ligand) DDDDKAYVSSESPIRISVSTEGANTSSSTSTSTTGTSHLVKCAEKEKTFCVNGGECFMVKDLSNPSRYLCKCPNEFTGDRCQNAVMASFYKHLGIEFMEAEELY |  | 339 nM | 24.5 nM
Trx-HRG-β1 146-244 T217A fusion (ligand) DDDDKAYVSSESPIRISVSTEGANTSSSTSTSTTGTSHLVKCAEKEKTFCVNGGECFMVKDLSNPSRYLCKCPNEFAGDRCQNYVMASFYKHLGIEFMEAEELY |  | 145 nM | 32.7 nM
Trx-HRG-β1 146-244 K211A fusion (ligand) DDDDKAYVSSESPIRISVSTEGANTSSSTSTSTTGTSHLVKCAEKEKTFCVNGGECFMVKDLSNPSRYLCACPNEFTGDRCQNYVMASFYKHLGIEFMEAEELY |  | 248 nM | 124 nM

Binder | EC50(wt)/EC50(mut) [1] | EC50 [2] | EC50 [3]
Trx-HRG-β1 146-244 E195A fusion (ligand) DDDDKAYVSSESPIRISVSTEGANTSSSTSTSTTGTSHLVKCAEKEKTFCVNGGACFMVKDLSNPSRYLCKCPNEFTGDRCQNYVMASFYKHLGIEFMEAEELY |  | 42 nM | 13.2 nM
Trx-HRG-β1 146-244 K200A fusion (ligand) DDDDKAYVSSESPIRISVSTEGANTSSSTSTSTTGTSHLVKCAEKEKTFCVNGGECFMVADLSNPSRYLCKCPNEFTGDRCQNYVMASFYKHLGIEFMEAEELY |  | 45.4 nM | 16.9 nM
Trx-HRG-β1 146-244 H178A fusion (ligand) DDDDKAYVSSESPIRISVSTEGANTSSSTSTSTTGTSALVKCAEKEKTFCVNGGECFMVKDLSNPSRYLCKCPNEFTGDRCQNYVMASFYKHLGIEFMEAEELY |  | 476 nM | 138 nM
Trx-HRG-β1 146-244 F189A fusion (ligand) DDDDKAYVSSESPIRISVSTEGANTSSSTSTSTTGTSHLVKCAEKEKTACVNGGECFMVKDLSNPSRYLCKCPNEFTGDRCQNYVMASFYKHLGIEFMEAEELY |  | 975 nM | 565 nM
SHLVKCAEKEKTFCVNGGECYRVKTYGYLMCKCPNEFTGDRCQNYVMAS (ligand) [HRG57 (phage)] | 24 |  | 
SHLVKCAEKEKTFCVNGGECYRVKTYGYLMCKCPNEFTGDRCQHYVIAS (ligand) [HRG71 (phage)] | 79 |  | 
D1 (phage) (ligand) SHLVKCAEKEKTFCVNGGECYKVRILSNPSRYLCKCPNEFTGDRCQNYVIAS | 11 |  | 
HRG59 (phage) (ligand) SHLVKCAEKEKTFCVNGGECYRVKTLSNPSRYLCKCPNEFTGDRCQNYVIAS | 26 |  | 
recombinantly produced HRG-β1 177-244 (ligand) SHLVKCAEKEKTFCVNGGECFMVKDLSNPSRYLCKCPNEFTGDRCQNYVMASFYKHLGIEFMEAEELY |  | 9 nM | 14.8 nM
A1 (phage) (ligand) WRLVPCAEKEKTFCVNGGECFMVKDLSNPSRYLCKCPNEFTGDRCQNYVMAS | 0.55 |  | 
A4 (phage) (ligand) WSLVKCAEKEKTFCVNGGECFMVKDLSNPSRYLCKCPNEFTGDRCQNYVMAS | < 0.3 |  | 
I1 (phage) (ligand) SHLVKCAEKEKTFCVNGGECFMVKDLSNPSRYLCKCPNEFTGDRCQWYVIAS | 13 |  | 
D10 (phage) (ligand) SHLVKCAEKEKTFCVNGGECYMVKTLSNPSRYLCKCPNEFTGDRCQNYVMAS | 2.1 |  | 
A2 (phage) (ligand) WSLQPCAEKEKTFCVNGGECFMVKDLSNPSRYLCKCPNEFTGDRCQNYVMAS | 0.87 |  | 
H5 (phage) (ligand) SHLVKCAEKEKTFCVNGGECFMVKDLSNPSRYLCKCPNEFTGERCQNYVMAS | 1.5 |  | 
B5 (phage) (ligand) SHLVKCGWDREGFCVNGGECFMVKDLSNPSRYLCKCPNEFTGDRCQNYVIAS | 26 |  | 
HRG60 (phage) (ligand) SHLVKCGEEREGFCVNGGECYRVKTLSNPSRYLCKCPNEFTGDRCQNYVIAS | 63 |  | 
HRG56 (phage) (ligand) SHLVKCGEEREGFCVNGGECFMVKDLSNPSRYLCKCPNEFTGDRCQNYVIAS | 31 |  | 
B10 (phage) (ligand) SHLVKCDKSREGFCVNGGECFMVKDLSNPSRYLCKCPNEFTGDRCQNYVIAS | 9.3 |  | 
HRG37 (phage) (ligand) WELVPCGWDREGFCVNGGECFMVKDLSNPSRYLCKCPNEFTGDRCQNYVIAS | 13 |  | 
HRG53 (phage) (ligand) SHLVKCGEEREGFCVNGGECYRVKTLSNPSRYLCKCPNEFTGDRCQNYVMAS | 26 |  | 
